Experimental data reported in patent US20090022738A1 (MICROMET, published 2009).

Legend:
human CD3 [1] = target: T1, human CD3 (human, UniProt P07766 23-207; P04234 22-171; P09693 23-182); assay: FACS on CD3-enriched PBMCs
T1 construct: whole, on cells; also called CD3 antigen; human CD3 complex

human CD3 [2] = target: T1, human CD3; assay: FACS, second experiment, crude supernatant on CD3-enriched PBMCs
Protocol: (§1) In order to analyze the binding efficacy of the deimmunized constructs to CD3 and CD19 a FACS-based assay was performed. Initially, crude supernatants were tested for binding on CD3-enriched PBMCs or CD19-positive NALM-6 cells. Cells were incubated with non-diluted supernatants for 30 minutes at 8° C. Upon two wash steps the cells were labeled with an anti-His antibody (Qiagen) under the same conditions. After additional wash steps binding of the constructs was detected with a FITC-conjugated sheep anti-mouse antibody (Sigma). Cells were analyzed with a FACS Calibur cytometer (B&D). As controls supernatants of anti-CD19×anti-CD3 and GFP-transfected cells were included. […] The positive control, which was a non-deimmunized anti-CD19×anti-CD3 construct reached a MFI of around 60 showing that the deimmunized constructs comprising anti-CD3 (VH5/VL1) (SEQ ID NO.:190), anti-CD3 (VH5/VL2) (SEQ ID NO.:192), anti-CD3 (VH5/VL3) (SEQ ID NO.:194), anti-CD3 (VH7/VL1) (SEQ ID NO.:196), anti-CD3 (VH7/VL2) (SEQ ID NO.:198) and anti-CD3 (VH7/VL3) (SEQ ID NO.:200) bound CD3 with extremely high efficacy.

CD19 = target: T2, CD19 (human, UniProt P15391 20-556); assay: FACS, crude supernatant on CD19-positive NALM-6 cells; negative control MFI ca. 3
T2 construct: whole, on cells; also called CD19 on NALM-6 cells
T2 sequence (looked up): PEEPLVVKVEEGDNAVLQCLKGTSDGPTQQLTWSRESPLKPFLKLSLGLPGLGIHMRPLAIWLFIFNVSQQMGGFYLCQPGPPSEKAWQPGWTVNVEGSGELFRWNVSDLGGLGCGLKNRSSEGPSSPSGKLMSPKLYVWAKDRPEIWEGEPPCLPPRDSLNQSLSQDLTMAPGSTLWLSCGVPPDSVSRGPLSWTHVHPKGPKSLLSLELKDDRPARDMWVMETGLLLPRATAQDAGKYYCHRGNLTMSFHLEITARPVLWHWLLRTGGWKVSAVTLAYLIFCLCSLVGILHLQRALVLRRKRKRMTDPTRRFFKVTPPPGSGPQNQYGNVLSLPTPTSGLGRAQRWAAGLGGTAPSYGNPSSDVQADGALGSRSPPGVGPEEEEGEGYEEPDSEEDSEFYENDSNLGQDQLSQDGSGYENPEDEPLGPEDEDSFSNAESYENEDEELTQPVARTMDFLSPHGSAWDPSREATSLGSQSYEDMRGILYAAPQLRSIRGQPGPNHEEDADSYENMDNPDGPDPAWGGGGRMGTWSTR
Protocol: as §1
The FACS-based binding assay was also carried out for CD19. In this experiment CD19 and a secondary antibody was as a negative control. In this experiment, all assayed constructs achieved a MFI of at least 80 while the MFI of the negative control was ca. 3.

human CD3 [3] = target: T1, human CD3; assay: FACS, non-diluted crude supernatant on CD3-enriched PBMCs; anti-His + FITC anti-mouse
Protocol: as §1

B1: anti-CD19×anti-CD3 (VH2/VL2) (SEQ ID NO.:180) (bispecific antibody)
chain: DIQLTQSPASLAVSLGQRATISCKASQSVDYDGDSYLNWYQQIPGQPPKLLIYDASNLVSGIPPRFSGSGSGTDFTLNIHPVEKVDAATYHCQQSTEDPWTFGGGTKLEIKGGGGSGGGGSGGGGSQVQLQQSGAELVRPGSSVKISCKASGYAFSSYWMNWVKQRPGQGLEWIGQIWPGDGDTNYNGKFKGKATLTADESSSTAYMQLSSLASEDSAVYFCARRETTTVGRYYYAMDYWGQGTTVTVSSGGGGSDVQLVQSGAEVKKPGASVKVSCKASGYTATRYTMHWVRQAPGQGLEWIGYINPSRGYTNYAQKLQGRVTMTTDTSTSTAYMELSSLRSEDTATYYCARYYDDHYCLDYWGQGTTVTVSSGEGTSTGSGGSGGSGGADDIVLTQSPATLSLSPGERATLSCRASQSVSYMNWYQQKPGKAPKRWIYDTSKVASGVPARFSGSGSGTDYSLTINSLEAEDAATYYCQQWSSNPLTFGGGTKVEIK
notes: As m4: bispecific single chain, His-tagged; also called pEF anti-CD19×anti-CD3 (VH2/VL2)
With B1 the binding result (human CD3 [1]) was “no binding (tested: non-diluted supernatant)”, the MFI (human CD3 [2]) was about 6 MFI and the MFI (CD19) was at least 80 MFI.

B2: anti-CD19×anti-CD3 (VH5/VL3) (SEQ ID NO.:194) (bispecific antibody)
chain: DIQLTQSPASLAVSLGQRATISCKASQSVDYDGDSYLNWYQQIPGQPPKLLIYDASNLVSGIPPRFSGSGSGTDFTLNIHPVEKVDAATYHCQQSTEDPWTFGGGTKLEIKGGGGSGGGGSGGGGSQVQLQQSGAELVRPGSSVKISCKASGYAFSSYWMNWVKQRPGQGLEWIGQIWPGDGDTNYNGKFKGKATLTADESSSTAYMQLSSLASEDSAVYFCARRETTTVGRYYYAMDYWGQGTTVTVSSGGGGSDVQLVQSGAEVKKPGASVKVSCKASGYTFTRYTMHWVRQAPGQGLEWIGYINPSRGYTNYADSVKGRFTITTDKSTSTAYMELSSLRSEDTATYYCARYYDDHYCLDYWGQGTTVTVSSGEGTSTGSGGSGGSGGADDIVLTQSPATLSLSPGERATLTCRASSSVSYMNWYQQKPGKAPKRWIYDTSKVASGVPARFSGSGSGTDYSLTINSLEAEDAATYYCQQWSSNPLTFGGGTKVEIK
notes: As m4: bispecific single chain, His-tagged; also called pEF anti-CD19×anti-CD3 (VH5/VL3)
With B2 the MFI (CD19) was at least 80 MFI, the MFI (human CD3 [3]) was at least 90 MFI and the “fold over the negative control (secondary antibody only, MFI ca. 3.5)” value (human CD3 [3]) was about 25 fold.

B3: anti-CD19×anti-CD3 (VH3/VL2) (SEQ ID NO.:186) (bispecific antibody)
chain: DIQLTQSPASLAVSLGQRATISCKASQSVDYDGDSYLNWYQQIPGQPPKLLIYDASNLVSGIPPRFSGSGSGTDFTLNIHPVEKVDAATYHCQQSTEDPWTFGGGTKLEIKGGGGSGGGGSGGGGSQVQLQQSGAELVRPGSSVKISCKASGYAFSSYWMNWVKQRPGQGLEWIGQIWPGDGDTNYNGKFKGKATLTADESSSTAYMQLSSLASEDSAVYFCARRETTTVGRYYYAMDYWGQGTTVTVSSGGGGSDVQLVQSGAEVKKPGASVKVSCKASGYTATRYTMHWVRQAPGQGLEWIGYINPSRGYTNYAQKLQGRVTMTTDTSTSTAYLQMNSLKTEDTAVYYCARYYDDHYCLDYWGQGTTVTVSSGEGTSTGSGGSGGSGGADDIVLTQSPATLSLSPGERATLSCRASQSVSYMNWYQQKPGKAPKRWIYDTSKVASGVPARFSGSGSGTDYSLTINSLEAEDAATYYCQQWSSNPLTFGGGTKVEIK
notes: As m4: bispecific single chain, His-tagged; also called pEF anti-CD19×anti-CD3 (VH3/VL2)
For B3, the binding result (human CD3 [1]) was “no binding (tested: non-diluted supernatant)”, the MFI (human CD3 [2]) was about 6 MFI and the MFI (CD19) was at least 80 MFI.

B4: anti-CD19×anti-CD3 (VH2/VL3) (SEQ ID NO.:182) (bispecific antibody)
chain: DIQLTQSPASLAVSLGQRATISCKASQSVDYDGDSYLNWYQQIPGQPPKLLIYDASNLVSGIPPRFSGSGSGTDFTLNIHPVEKVDAATYHCQQSTEDPWTFGGGTKLEIKGGGGSGGGGSGGGGSQVQLQQSGAELVRPGSSVKISCKASGYAFSSYWMNWVKQRPGQGLEWIGQIWPGDGDTNYNGKFKGKATLTADESSSTAYMQLSSLASEDSAVYFCARRETTTVGRYYYAMDYWGQGTTVTVSSGGGGSDVQLVQSGAEVKKPGASVKVSCKASGYTATRYTMHWVRQAPGQGLEWIGYINPSRGYTNYAQKLQGRVTMTTDTSTSTAYMELSSLRSEDTATYYCARYYDDHYCLDYWGQGTTVTVSSGEGTSTGSGGSGGSGGADDIVLTQSPATLSLSPGERATLTCRASSSVSYMNWYQQKPGKAPKRWIYDTSKVASGVPARFSGSGSGTDYSLTINSLEAEDAATYYCQQWSSNPLTFGGGTKVEIK
notes: As m4: bispecific single chain, His-tagged; also called pEF anti-CD19×anti-CD3 (VH2/VL3)
For B4, the binding result (human CD3 [1]) was “no binding (tested: non-diluted supernatant)”, the MFI (human CD3 [2]) was about 6 MFI and the MFI (CD19) was at least 80 MFI.

B5: anti-CD19×anti-CD3 (VH5/VL2) (SEQ ID NO.:192) (bispecific antibody)
chain: DIQLTQSPASLAVSLGQRATISCKASQSVDYDGDSYLNWYQQIPGQPPKLLIYDASNLVSGIPPRFSGSGSGTDFTLNIHPVEKVDAATYHCQQSTEDPWTFGGGTKLEIKGGGGSGGGGSGGGGSQVQLQQSGAELVRPGSSVKISCKASGYAFSSYWMNWVKQRPGQGLEWIGQIWPGDGDTNYNGKFKGKATLTADESSSTAYMQLSSLASEDSAVYFCARRETTTVGRYYYAMDYWGQGTTVTVSSGGGGSDVQLVQSGAEVKKPGASVKVSCKASGYTFTRYTMHWVRQAPGQGLEWIGYINPSRGYTNYADSVKGRFTITTDKSTSTAYMELSSLRSEDTATYYCARYYDDHYCLDYWGQGTTVTVSSGEGTSTGSGGSGGSGGADDIVLTQSPATLSLSPGERATLSCRASQSVSYMNWYQQKPGKAPKRWIYDTSKVASGVPARFSGSGSGTDYSLTINSLEAEDAATYYCQQWSSNPLTFGGGTKVEIK
notes: As m4: bispecific single chain, His-tagged; also called pEF anti-CD19×anti-CD3 (VH5/VL2); anti-CD3 (VH5/VK2)
B5 was tested, and the MFI (CD19) was at least 80 MFI, the MFI (human CD3 [3]) was at least 90 MFI and the “fold over the negative control (secondary antibody only, MFI ca. 3.5)” value (human CD3 [3]) was about 25 fold.

B6: anti-CD19×anti-CD3 (VH3/VL3) (SEQ ID NO.:188) (bispecific antibody)
chain: DIQLTQSPASLAVSLGQRATISCKASQSVDYDGDSYLNWYQQIPGQPPKLLIYDASNLVSGIPPRFSGSGSGTDFTLNIHPVEKVDAATYHCQQSTEDPWTFGGGTKLEIKGGGGSGGGGSGGGGSQVQLQQSGAELVRPGSSVKISCKASGYAFSSYWMNWVKQRPGQGLEWIGQIWPGDGDTNYNGKFKGKATLTADESSSTAYMQLSSLASEDSAVYFCARRETTTVGRYYYAMDYWGQGTTVTVSSGGGGSDVQLVQSGAEVKKPGASVKVSCKASGYTATRYTMHWVRQAPGQGLEWIGYINPSRGYTNYAQKLQGRVTMTTDTSTSTAYLQMNSLKTEDTAVYYCARYYDDHYCLDYWGQGTTVTVSSGEGTSTGSGGSGGSGGADDIVLTQSPATLSLSPGERATLTCRASSSVSYMNWYQQKPGKAPKRWIYDTSKVASGVPARFSGSGSGTDYSLTINSLEAEDAATYYCQQWSSNPLTFGGGTKVEIK
notes: As m4: bispecific single chain, His-tagged; also called pEF anti-CD19×anti-CD3 (VH3/VL3)
For B6, the binding result (human CD3 [1]) was “no binding (tested: non-diluted supernatant)”, the MFI (human CD3 [2]) was about 6 MFI and the MFI (CD19) was at least 80 MFI.

B7: anti-CD19×anti-CD3 (VH2/VL1) (SEQ ID NO.:178) (bispecific antibody)
chain: DIQLTQSPASLAVSLGQRATISCKASQSVDYDGDSYLNWYQQIPGQPPKLLIYDASNLVSGIPPRFSGSGSGTDFTLNIHPVEKVDAATYHCQQSTEDPWTFGGGTKLEIKGGGGSGGGGSGGGGSQVQLQQSGAELVRPGSSVKISCKASGYAFSSYWMNWVKQRPGQGLEWIGQIWPGDGDTNYNGKFKGKATLTADESSSTAYMQLSSLASEDSAVYFCARRETTTVGRYYYAMDYWGQGTTVTVSSGGGGSDVQLVQSGAEVKKPGASVKVSCKASGYTATRYTMHWVRQAPGQGLEWIGYINPSRGYTNYAQKLQGRVTMTTDTSTSTAYMELSSLRSEDTATYYCARYYDDHYCLDYWGQGTTVTVSSGEGTSTGSGGSGGSGGADDIQMTQSPSSLSASVGDRVTITCRASQSVSYMNWYQQKPGKAPKRWIYDTSKVASGVPARFSGSGSGTDYSLTINSLEAEDAATYYCQQWSSNPLTFGGGTKVEIK
notes: also called pEF anti-CD19×anti-CD3 (VH2/VL1)
B7 was tested, and the binding result (human CD3 [1]) was “no binding (tested: non-diluted supernatant)”, the MFI (human CD3 [2]) was about 6 MFI and the MFI (CD19) was at least 80 MFI.
